4 substances from PMC4619592 can be followed below.

Assay [1] has as its target Grouper nervous necrosis virus capsid protein, full length (338 residues) (orange-spotted grouper nervous necrosis virus (OSGNNV)). The experiment in a line: SDS-PAGE; oligomerization of three CPs in solution, bands compared to protein standards.
The target of assay [2] is N-ARM deletion mutant of GNNV capsid protein (residues 35-338) (orange-spotted grouper nervous necrosis virus (OSGNNV)). The description is as above.
The target in assay [3] is Truncated P-domain of GNNV capsid protein (residues 214-338) (orange-spotted grouper nervous necrosis virus (OSGNNV)). Put plainly: SEC; purified P-domain on Superdex 75 10/300 GL in the presence of Ca2+, against protein standards.
Assay [4] has the same target. Put plainly: crystal structure; truncated P-domain (214-338), 1.2 Å; crystals from 0.2 M Ca acetate, 0.1 M MES (pH 6.5), 10% PEG8000.
Assay [5] addresses delta-P-domain mutant of GNNV capsid protein (residues 35-217) (orange-spotted grouper nervous necrosis virus (OSGNNV)). The experiment in a line: SDS-PAGE; oligomerization of three CPs in solution, bands compared to protein standards.
The target is the same in assay [6]. Put plainly: crystal structure; T = 1 delta-P-domain mutant (35-217), 3.1 Å; crystals from 0.2 M MgCl2, 0.1 M HEPES-Na (pH 7.5), 30% PEG400.

On to “Grouper nervous necrosis virus capsid protein, full length (338 residues) (natural protein)”, for which the stoichiometry N in assay [1] was 3.

In the case of “N-ARM deletion mutant of GNNV capsid protein (residues 35-338) (domain or fragment)”, the stoichiometry N in assay [2] was 3.

As for “Truncated P-domain of GNNV capsid protein (residues 214-338) (domain or fragment)”, the stoichiometry N in assay [3] and in assay [4] was 3 in each case.

“delta-P-domain mutant of GNNV capsid protein (residues 35-217) (domain or fragment)”: the figures for the stoichiometry N in assay [5] and in assay [6] were 2 and 60, respectively.
